{
  "source": "paper PMC5599688",
  "key": {"[1]": {"target": "calnexin (rat brain) (rat (endogenous in brain)) (UniProt P35565)", "sequence (P35565 21-591)": "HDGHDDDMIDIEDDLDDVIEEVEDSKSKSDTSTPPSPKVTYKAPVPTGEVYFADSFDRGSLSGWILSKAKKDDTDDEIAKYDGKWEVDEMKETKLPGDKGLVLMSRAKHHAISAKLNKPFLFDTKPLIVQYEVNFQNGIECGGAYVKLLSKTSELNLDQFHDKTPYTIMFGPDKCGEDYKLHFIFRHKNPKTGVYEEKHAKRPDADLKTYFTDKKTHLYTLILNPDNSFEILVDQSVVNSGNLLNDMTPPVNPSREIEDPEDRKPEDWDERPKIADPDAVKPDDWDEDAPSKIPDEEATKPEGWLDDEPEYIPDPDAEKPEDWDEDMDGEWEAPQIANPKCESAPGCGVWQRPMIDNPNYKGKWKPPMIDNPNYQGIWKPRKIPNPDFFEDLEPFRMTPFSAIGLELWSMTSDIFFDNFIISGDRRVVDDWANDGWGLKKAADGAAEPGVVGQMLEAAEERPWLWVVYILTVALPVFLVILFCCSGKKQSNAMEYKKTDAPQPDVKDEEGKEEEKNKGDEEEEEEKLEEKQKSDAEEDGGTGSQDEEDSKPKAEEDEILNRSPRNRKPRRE", "experiment": "co-IP; 10% rat brain homogenate (also NEC versus GAERS brain) in 50 mM TrisHCl pH 8.0, 300 mM NaCl, 0.5% Triton X100, 0.5% DOC; rabbit polyclonal anti-CNX overnight at 4 °C, Sepharose G beads; blotted for Cav3.2; signal normalised to precipitated calnexin"}, "[2]": {"target": "GFP-tagged III-IV linker of rat Cav3.2 without exon 25, wild type (rat)", "experiment": "co-IP; tsA-201 cells 72 h after transfection, NP40 lysis buffer; precipitated with anti-GFP (GFP-tagged Cav3.2 regions), blotted with anti-mCherry; densitometry normalised to expression levels"}, "[3]": {"target": "GFP-tagged III-IV linker of rat Cav3.2 with exon 25, GAERS mutation R1584P (rat)", "experiment": "co-IP; tsA-201 cells 72 h after transfection, NP40 lysis buffer; precipitated with anti-GFP (GFP-tagged Cav3.2 regions), blotted with anti-mCherry; densitometry normalised to expression levels"}, "[4]": {"target": "GFP-tagged III-IV linker of human Cav3.2 with R1573P (human) (UniProt O95180)", "sequence (O95180 whole entry R1573P)": "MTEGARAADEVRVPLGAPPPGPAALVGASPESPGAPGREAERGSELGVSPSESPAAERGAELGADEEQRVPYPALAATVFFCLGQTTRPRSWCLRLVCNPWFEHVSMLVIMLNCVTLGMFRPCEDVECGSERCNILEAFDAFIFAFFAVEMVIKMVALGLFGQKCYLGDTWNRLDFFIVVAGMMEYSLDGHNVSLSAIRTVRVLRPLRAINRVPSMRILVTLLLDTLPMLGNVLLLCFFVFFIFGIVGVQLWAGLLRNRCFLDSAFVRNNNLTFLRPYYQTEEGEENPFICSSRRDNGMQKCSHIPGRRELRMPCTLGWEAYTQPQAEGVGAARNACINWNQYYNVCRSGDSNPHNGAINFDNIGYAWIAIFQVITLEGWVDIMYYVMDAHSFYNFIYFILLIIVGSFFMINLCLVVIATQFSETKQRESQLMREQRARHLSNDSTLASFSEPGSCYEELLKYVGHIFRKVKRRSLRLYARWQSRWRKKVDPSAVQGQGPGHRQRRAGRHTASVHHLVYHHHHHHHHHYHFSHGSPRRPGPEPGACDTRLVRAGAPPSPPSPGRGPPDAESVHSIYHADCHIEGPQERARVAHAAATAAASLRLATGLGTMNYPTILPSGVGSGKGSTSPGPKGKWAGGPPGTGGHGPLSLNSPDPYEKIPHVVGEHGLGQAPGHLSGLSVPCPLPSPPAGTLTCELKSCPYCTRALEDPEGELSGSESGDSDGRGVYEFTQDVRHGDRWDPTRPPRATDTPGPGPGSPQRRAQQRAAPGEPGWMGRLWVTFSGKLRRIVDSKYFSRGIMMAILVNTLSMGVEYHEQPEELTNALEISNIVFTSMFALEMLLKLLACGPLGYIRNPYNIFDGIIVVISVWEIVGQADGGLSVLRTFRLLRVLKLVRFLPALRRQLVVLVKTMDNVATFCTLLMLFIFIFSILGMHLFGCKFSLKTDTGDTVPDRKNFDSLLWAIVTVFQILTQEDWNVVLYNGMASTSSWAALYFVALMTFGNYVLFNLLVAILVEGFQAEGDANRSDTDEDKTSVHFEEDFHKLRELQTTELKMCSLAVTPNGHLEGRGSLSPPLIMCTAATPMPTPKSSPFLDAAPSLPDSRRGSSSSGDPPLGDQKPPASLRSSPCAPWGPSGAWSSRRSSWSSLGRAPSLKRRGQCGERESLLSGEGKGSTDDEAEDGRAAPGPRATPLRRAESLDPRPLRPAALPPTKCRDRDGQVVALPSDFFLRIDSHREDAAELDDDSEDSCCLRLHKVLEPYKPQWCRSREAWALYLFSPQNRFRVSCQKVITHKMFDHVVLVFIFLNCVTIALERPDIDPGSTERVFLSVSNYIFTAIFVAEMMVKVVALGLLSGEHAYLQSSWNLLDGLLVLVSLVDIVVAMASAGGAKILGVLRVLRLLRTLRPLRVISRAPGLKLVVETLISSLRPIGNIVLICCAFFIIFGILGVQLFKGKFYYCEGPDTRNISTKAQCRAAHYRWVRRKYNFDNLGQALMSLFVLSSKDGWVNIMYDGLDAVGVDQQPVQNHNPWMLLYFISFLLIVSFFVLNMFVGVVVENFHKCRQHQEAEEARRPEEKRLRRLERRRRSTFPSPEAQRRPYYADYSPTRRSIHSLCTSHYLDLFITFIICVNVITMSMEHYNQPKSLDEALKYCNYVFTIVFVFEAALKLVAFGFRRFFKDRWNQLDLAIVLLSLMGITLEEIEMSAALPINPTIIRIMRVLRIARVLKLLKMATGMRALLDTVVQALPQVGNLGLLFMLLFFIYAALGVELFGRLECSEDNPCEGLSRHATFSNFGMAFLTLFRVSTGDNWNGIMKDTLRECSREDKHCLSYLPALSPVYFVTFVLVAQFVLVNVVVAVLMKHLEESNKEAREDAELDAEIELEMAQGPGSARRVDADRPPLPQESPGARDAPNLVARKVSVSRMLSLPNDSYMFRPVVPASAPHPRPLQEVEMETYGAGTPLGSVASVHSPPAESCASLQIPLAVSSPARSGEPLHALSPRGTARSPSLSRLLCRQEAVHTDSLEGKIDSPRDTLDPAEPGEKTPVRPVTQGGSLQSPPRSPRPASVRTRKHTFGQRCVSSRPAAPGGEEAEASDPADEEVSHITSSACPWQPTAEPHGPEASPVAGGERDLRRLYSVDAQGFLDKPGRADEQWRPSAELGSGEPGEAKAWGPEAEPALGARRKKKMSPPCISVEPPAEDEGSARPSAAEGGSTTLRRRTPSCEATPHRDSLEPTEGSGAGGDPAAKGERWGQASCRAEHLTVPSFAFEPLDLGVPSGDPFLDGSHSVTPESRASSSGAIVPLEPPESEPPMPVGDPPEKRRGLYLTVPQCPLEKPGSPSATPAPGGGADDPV", "experiment": "co-IP; tsA-201 cells 72 h after transfection, NP40 lysis buffer; precipitated with anti-GFP (GFP-tagged Cav3.2 regions), blotted with anti-mCherry; densitometry normalised to expression levels"}, "[5]": {"target": "GFP-tagged III-IV linker of rat Cav3.2 without exon 25, GAERS mutation R1584P (rat)", "experiment": "co-IP; tsA-201 cells 72 h after transfection, NP40 lysis buffer; precipitated with anti-GFP (GFP-tagged Cav3.2 regions), blotted with anti-mCherry; densitometry normalised to expression levels"}, "[6]": {"target": "calnexin in tsA-201 cells (not stated (endogenous human in tsA-201, or transfected mouse cDNA)) (UniProt P27824)", "sequence (P27824 21-592)": "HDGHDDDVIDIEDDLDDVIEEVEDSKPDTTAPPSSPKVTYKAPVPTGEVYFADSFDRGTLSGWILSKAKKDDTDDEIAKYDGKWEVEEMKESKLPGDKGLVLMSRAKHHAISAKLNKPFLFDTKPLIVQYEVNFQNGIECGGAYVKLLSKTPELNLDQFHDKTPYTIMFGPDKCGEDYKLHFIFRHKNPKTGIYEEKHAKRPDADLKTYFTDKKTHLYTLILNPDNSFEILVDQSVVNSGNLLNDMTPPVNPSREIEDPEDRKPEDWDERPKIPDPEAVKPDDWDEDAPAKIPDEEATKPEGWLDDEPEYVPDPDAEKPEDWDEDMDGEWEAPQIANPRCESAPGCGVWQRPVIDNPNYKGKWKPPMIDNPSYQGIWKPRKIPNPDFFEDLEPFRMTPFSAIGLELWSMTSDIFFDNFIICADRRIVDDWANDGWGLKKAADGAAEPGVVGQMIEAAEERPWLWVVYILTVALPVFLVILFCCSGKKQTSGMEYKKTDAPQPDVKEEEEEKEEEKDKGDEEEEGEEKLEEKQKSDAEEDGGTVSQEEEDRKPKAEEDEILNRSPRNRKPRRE"}},
  "data": [
    {"substance": "Cav3.2 T-type calcium channel of GAERS brain (R1584P), Q9EQ60 1-2359", "values": [
      {"measurement": "decrease of Cav3.2 co-immunoprecipitated with calnexin, GAERS against NEC brain", "setting": "[1]", "value": 42, "unit": "%"}
    ]},
    {"substance": "mCherry-tagged calnexin lacking the luminal domain (CNX^BD) (from UniProt P35564 483-591) (domain or fragment)", "values": [
      {"measurement": "decrease of binding against wild-type rIII-IV (+25)", "setting": "[2]", "value": 75, "unit": "%"},
      {"measurement": "decrease of binding against wild-type rIII-IV (+25)", "setting": "[3]", "value": 82, "unit": "%"},
      {"measurement": "decrease of co-immunoprecipitated calnexin C-tail against the wild-type III-IV linker", "setting": "[4]", "value": 70, "unit": "%"},
      {"measurement": "additional decrease of binding (reference unclear: printed as against wild-type rIII-IV (+25))", "setting": "[5]", "value": 69, "unit": "%"}
    ]},
    {"substance": "HA-tagged human Cav3.2 channel, O95180 1-2353", "values": [
      {"measurement": "mean peak Ba2+ current density at −20 mV, tsA-201 cells expressing HA-hCav3.2 with the soluble calnexin C-tail CNX^CD against control cells (increase)", "setting": "[6]", "value": 76, "unit": "%"},
      {"measurement": "surface expression of HA-tagged Cav3.2 by immunostaining, tsA-201 cells expressing the calnexin C-tail CNX^CD against control cells (increase)", "setting": "[6]", "value": 30, "unit": "%"}
    ]}
  ]
}
